{"source": "patent US20090047301A1", "key": {"[1]": {"molecular_target": "HPV16 L2 in HPV16 L1/L2 capsids (pseudovirions, L1/L2 VLPs) (human papillomavirus 16 (HPV16)) (UniProt P03107)"}, "[2]": {"molecular_target": "HPV18 L2 in HPV18 pseudovirions (human papillomavirus 18 (HPV18)) (UniProt P06793)"}, "[3]": {"molecular_target": "HPV16 L2 in HPV16 L1/L2 capsids (pseudovirions, L1/L2 VLPs) (human papillomavirus 16 (HPV16)) (UniProt P03107)", "remark": "listed apart in the source"}, "[4]": {"molecular_target": "HPV16 L2 in HPV16 L1/L2 capsids (pseudovirions, L1/L2 VLPs) (human papillomavirus 16 (HPV16)) (UniProt P03107)", "assay": "HPV16 L1/L2 VLP ELISA, undiluted hybridoma supernatant"}, "[5]": {"molecular_target": "HPV16 L2 in HPV16 L1/L2 capsids (pseudovirions, L1/L2 VLPs) (human papillomavirus 16 (HPV16)) (UniProt P03107)", "assay": "HPV16 L1/L2 VLP ELISA"}, "[6]": {"molecular_target": "full length HPV16 L2 protein (ELISA and Western blot antigen) (human papillomavirus 16 (HPV16)) (UniProt P03107)", "assay": "L2 protein ELISA, undiluted hybridoma supernatant"}}, "data": [{"substance": "RG-1 (antibody)", "values": [{"measurement": "HPV16 neutralization (undiluted hybridoma supernatant titrated) (titer (1:x dilution))", "setting": "[1]", "value": 1280}, {"measurement": "neutralization of HPV18 pseudovirions, RG-1 ascites (titer (1:x dilution))", "setting": "[2]", "value": 25600}, {"measurement": "neutralization of HPV16 pseudovirions, RG-1 ascites (titer (1:x dilution))", "setting": "[3]", "value": 205000}, {"measurement": "OD405 L1/L2 ELISA", "setting": "[4]", "value": 0.9, "unit": "OD405"}, {"measurement": "ELISA titer (titer (1:x dilution))", "setting": "[5]", "value": "1.02e+06"}, {"measurement": "OD405 L2 ELISA", "setting": "[6]", "value": 1.3, "unit": "OD405"}]}]}
